Experimental data reported in the Human Domainome abundance scans (Beltran et al. 2025).

B1: Nucleosome-remodeling factor subunit BPTF, residues 2862 to 2918; numbered along this chain, Q12830 (parent)
chain: TKKDTKLYCICKTPYDESKFYIGCDRCQNWYHGRCVGILQSEAELIDEYVCPQCQST

Variants of: B1
Experiment: abundance fitness (aPCA) (normalised: wild type 0, dead -1); higher = more abundant; growth selection in yeast, the domain comes from the species named
Details: Homo sapiens

Abundance fitness: each site, then its substitutions
L7: F -0.089, G -0.005, H 0.018, I -0.179, K -0.219, N 0.037, P -0.071, R -0.18, S -0.046, T -0.012, V -0.076, W -0.13, Y -0.022
Y8: A 0.065, C -0.028, D 0.072, E 0.166, F -0.037, G 0.051, I -0.166, K 0.065, L -0.043, M 0.015, P -0.298, Q 0.054, R -0.105, S -0.014, T -0.041, V -0.081, W -0.164
C9: A -0.877, D -0.827, E -0.971, F -0.916, G -0.801, H -0.838, I -1.05, K -0.706, L -0.815, N -0.932, P -0.716, Q -0.846, R -0.879, T -0.851, V -0.986
I10: C -0.245, D -0.278, E -0.129, F -0.307, G -0.387, H -0.084, K -0.218, M -0.252, N -0.446, P -0.395, Q -0.472, R -0.368, S -0.387, T -0.249, V -0.218, W -0.398, Y -0.234
C11: A -0.934, D -0.759, E -0.638, F -1.12, G -0.771, H -1.01, I -0.968, K -0.822, L -0.828, M -0.803, N -0.857, P -0.802, Q -0.947, R -0.818, S -0.934, V -1.03, W -1.09, Y -0.997
K12: C -0.104, D -0.2, E -0.025, F -0.253, H -0.061, I -0.869, L -0.121, M -0.167, N -0.233, P -0.907, Q 0.006, R -0.07, S -0.119, T -0.106, V -0.808, W -0.56, Y -0.134
T13: A -0.357, C -0.577, D -0.54, G -0.567, H -0.518, I -0.482, K -0.044, L -0.292, M -0.176, N -0.297, P -0.674, Q -0.116, R -0.22, S -0.116
P14: A 0.008, C -0.367, D -0.581, E -0.163, G -0.42, H -0.275, I -0.216, K -0.096, L -0.212, M -0.096, N -0.191, Q -0.263, S -0.161, T -0.206, V -0.229, W -0.447, Y -0.131
Y15: A -0.366, C -0.505, D -0.438, E -0.489, F -0.02, G -0.492, H -0.106, I -0.073, K -0.131, M -0.005, N -0.593, P -0.313, Q -0.665, S -0.539, T -0.303, V -0.275, W -0.118
D16: A -0.441, C -0.449, G -0.564, H -0.55, I -0.624, K -0.452, L -0.555, M -0.194, N -0.181, P -0.622, Q -0.182, R -0.515, S -0.362, T -0.366, V -0.315, W -0.778, Y -0.757
E17: A -0.042, C -0.288, D -0.013, F -0.052, G 0.055, H -0.168, I -0.155, K -0.013, L -0.172, M -0.131, N -0.172, P -0.153, Q -0.074, R -0.304, S -0.065, T -0.2, V -0.289, W -0.412, Y -0.294
S18: A -0.217, C -0.366, D -0.031, F -0.582, G -0.087, H -0.098, I -1.05, K -0.277, L -0.536, M -0.284, N -0.185, P -0.759, Q -0.5, R -0.24, T -0.198, V -0.72, W -0.746, Y -0.37
K19: A -0.069, C -0.252, D 0.044, E 0.106, F -0.351, G -0.244, H 0.007, I -0.101, L -0.059, M -0.08, N 0.082, P -0.637, Q -0.097, R 0.048, S -0.186, T -0.231, V -0.108, W -0.668, Y -0.286
F20: A -0.161, C -0.346, D -0.062, E -0.002, G -0.226, I -0.244, K -0.192, L -0.193, M -0.149, N -0.044, P -0.001, Q -0.104, R -0.149, S -0.11, T -0.009, W -0.083, Y -0.08
Y21: A 0.006, C -0.369, E -0.245, F -0.161, G -0.395, H -0.188, I -0.237, K -0.196, L -0.245, M 0.118, N -0.134, P -0.658, Q -0.359, R -0.151, T -0.3, V -0.19, W -0.08
I22: A -0.578, C -0.806, D -0.819, E -0.953, F -0.609, G -0.649, H -0.678, K -0.551, L 0.015, M -0.237, N -0.803, P -0.87, Q -0.641, R -0.475, S -0.786, T -0.398, V -0.038, W -0.533, Y -0.617
G23: A -0.099, C -0.007, D -0.085, F -0.139, H 0.029, I -0.546, K -0.13, M -0.016, N -0.133, P -0.297, Q -0.079, R -0.126, S -0.085, T -0.021, V -0.223, W -0.177, Y -0.031
C24: A -1.02, D -0.765, E -0.641, F -0.735, G -0.909, H -0.972, I -0.871, L -0.884, M -1.05, N -0.966, P -0.539, R -0.584, S -0.976, T -0.933, V -0.908, W -0.974, Y -0.894
D25: A -0.011, E 0.058, F -0.168, G -0.041, H -0.061, I -0.15, K 0.154, L -0.021, N 0, P -0.204, Q 0.099, R 0.025, S 0.054, T 0.056, W -0.176
R26: D -0.029, E -0.087, F -0.279, G 0.041, H 0.064, I 0.043, K -0.17, L -0.068, M -0.193, N 0.075, P -0.207, Q -0.203, S 0.008, T 0.067
